In paper PMC4676284 (mBio, 2015):

Target: the molecule itself
Experiment: crystal structure

Protein | stoichiometry N
Bartonella birtlesii strain LL-WM9 TrwG, soluble C-terminal periplasmic domain (domain or fragment) QPAPTPLVLRVDNTTGAVDVISVMREHETSYGEVVDRYWLNQYVLNRETYDYDTIQLNYDTTALLSTAAVQQEFYKIYEGEDARDKVLSNKARITVKVRSIQPNGRGQATVRFTTQQHDSTGAVGVKQHQIATIGYTYVGAPMKSSDRLLNPLGFQVTSYRTDPEILLNN | 2
Bartonella grahamii strain as4aup TrwG, soluble C-terminal periplasmic domain (domain or fragment) QPAPTPLVLRVDNTTGAVDVISVMREHETSYGEVVDRYWLNQYVLNRENYDYDTIQLNYDTTALLSAASVQQEYYKIYDGENARDKVLSNKARITVKVRSIQLNGLGQATVRFTTQQLDSSGATTGPKQHQIATIGYTYVGAPMKSSDRLLNPLGFQITSYRSDPEILLND | 2
Bartonella grahamii strain as4aup VirB8, soluble C-terminal periplasmic domain (domain or fragment) ALTPLKTVEPFVIRVDNSTGIIDTVSALKESPNDYDEAITRYFASQYVRAREGFQASEAENNFRLVSLLSSPKEQNRFGKWYAGNNPESPQNIYHNMIATVTIKSISFISKDLIQVRYYKTVRDFNEKENISHWISILNFSYVNAHISTSDRLINPLGFQVSEYRSDPEVIK | 2
